According to patent US12702701B2, “Compositions and methods for treating granulomatosis with polyangiitis” (Canem Holdings, LLC, priority 2015, dated 2026):

B1: Negative K: negative control α1-antichymotrypsin (Athens Research & Technology), structurally similar to A1PI, lacks activity against the PR3 receptor (protein)
chain: HPNSPLDEENLTQENQDRGTHVDLGLASANVDFAFSLYKQLVLKAPDKNVIFSPLSISTALAFLSLGAHNTTLTEILKGLKFNLTETSEAEIHQSFQHLLRTLNQSSDELQLSMGNAMFVKEQLSLLDRFTEDAKRLYGSEAFATDFQDSAAAKKLINDYVKNGTRGKITDLIKDLDSQTMMVLVNYIFFKAKWEMPFDPQDTHQSRFYLSKKKWVMVPMMSLHHLTIPYFRDEELSCTVVELKYTGNASALFILPDQDKMEEVEAMLLPETLKRWRDSLEFREIGELYLPKFSISRDYNLNDILLQLGIEEAFTSKADLSGITGARNLAVSQVVHKAVLDVFEEGTEASAATAVKITLLSALVETRTIVRFNRPFLMIIVPTDTQNIFFMSKVTNPKQA

What was measured:
[1] = molecular target: T1, proteinase-3 (Homo sapiens, UniProt P24158); settings: Nobar et al, FEBS 272 (2005); cited from earlier work
T1 sequence (P24158 28-248): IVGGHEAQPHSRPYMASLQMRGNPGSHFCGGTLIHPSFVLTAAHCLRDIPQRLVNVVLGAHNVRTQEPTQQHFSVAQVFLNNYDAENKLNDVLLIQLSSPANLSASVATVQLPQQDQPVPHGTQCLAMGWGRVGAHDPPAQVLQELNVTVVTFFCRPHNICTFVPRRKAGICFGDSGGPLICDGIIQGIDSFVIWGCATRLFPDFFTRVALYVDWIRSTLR

[2] = molecular target: T1, proteinase-3; settings: cited from earlier work
[3] = tested on: HUVEC (human umbilical vein endothelial cells); assay: HUVEC cytotoxicity assay: calcein release after attack by TNF-primed, α-PR3 mAb-activated neutrophils; assay type: cell-based; settings: for % Release / Mean (fluorescence): 0.25 mg/mL, α-PR3 mAbs +, 4 hours at 37° C.; for response in fluorescence release: all doses tested
From the text: A cell culture provides a model of the blood vessels by using HUVEC (human umbilical vein endothelial cells) cultured to 80-90% confluence as a representation of the blood vessel wall. The following is a model of GPA in cell culture using HUVEC and human blood neutrophils that are primed and activated by c-ANCA in the same manner as the disease. HUVEC are sensitized to inflammatory damage by pre-exposure to BCNU and ionomycin. In the disease state of Granulomatosis with Polyangiitis (GPAANegener's), activated neutrophils attack the blood vessel walls. This study evaluated two compounds, A1PI (α-1-antitrypsin; Sigma Aldrich Cat. No. A9024, lot SLBL9794V, 90% purity) and elafin (AnaSpec Cat. No. AS-61641, lot 1360190, 95% purity), and their ability to mitigate the induced damage to HUVEC as a model of the vascular endothelium compared to the negative control al-antichymotrypsin (Athens Research & Technology, Cat. No. 16-16-012400, lot AX2014-02, >95% purity). al-Antichymotrypsin was chosen as a negative control due to its structural similarity to A1PI and lack of activity against the PR3 receptor. α-1-Antichymotrypsin inhibits neutrophil cathepsin G and mast cell chymase.
Confluent HUVEC was labeled with calcein-AM as a fluorescent marker. Calcein-AM is a cell-permeant dye that can be used to determine cell viability in HUVEC (and most eukaryotic cells). In live cells the non-fluorescent calcein AM is converted to a green-fluorescent calcein upon uptake after acetoxymethyl ester hydrolysis by intracellular esterases. Calcein-AM dye requires very small quantities of cells while maintaining the same sensitivity as the traditional ^51Cr assay. Once taken up by the cell, free calcein is generally membrane impermeable and only permeates through gap junctions. Although there is some leakage over the incubation period, this is accounted for through the use of a control of HUVEC alone, labelled with Calcein-AM and used to determine the baseline fluorescence level accounting for normal cellular processes.
Peripheral blood neutrophils were primed to enhance expression of the PR-3 receptor (proteinase 3) with 50 U/mL TNF. A high proportion of membrane PR3 positive neutrophils is a risk factor for the development of vasculitis, and elevated membrane PR3 levels are associated with a higher relapse rate in patients with Wegener granulomatosis. Activated neutrophils were then added (5×10^5 neutrophils/well) to plated calcein labeled HUVEC to produce an inflammatory response. Four dose concentrations of A1PI (0.25, 0.5, 1.0 and 2.0 mg/mL) and one dose of elafin (0.25 mg/mL) were evaluated for prevention of the activation of neutrophils and lysis of the cells. One dose concentration of the negative control al antichymotrypsin (0.25 mg/mL) was evaluated.
Three a-PR-3 MoAbs [monoclonal antibodies (15 μg/mL of α-PR3 WGM2 and 5 μg/ml each of a-PR3 4A5 and α-PR 6A6, for a total of 25 μg/mL)] were added to activate the neutrophils to attack the HUVEC, causing lysis of the HUVEC. α-PR3 4A5 and α-PR3 6A6 clones were obtained from Eurodiagnostica and the α-PR3 WGM2 from Abcam. These 3 clones were selected to provide a model of the polyclonal response that would be seen in vivo and represent three binding sites on the PR-3 receptor (Van Der Geld, Characterization of monoclonal antibodies to PR3 as candidate tools for epitope mapping or human anti-PR3 autoantibodies, 1999). After addition of the activated neutrophils, test compounds and α-PR3 mAbs, cells were incubated for 4 hours at 37° C. Following incubation the supernatant was evaluated for fluorescence. When neutrophils attack the HUVEC and cell lysis occurs, the fluorescent calcein label is released from damaged membranes and measured in the supernatants.
A1PI provided a response that was dose dependent and directional in nature. The mean fluorescence was determined from […] aliquots of supernatant from each well, with 6 wells for each condition (18 replicates total). […]

Molecule | Ki values [1] | K of Proteinase-3/Trappin-2 associations [2] [nm] | equilibrium dissociation constant (Ki) for proteinase-3/elafin association [2] [nM] | % Release [3] [%] | Mean (fluorescence) [3] | response in fluorescence release [3]
Trappin-2: precursor of elafin, 117 amino acids, SEQ ID NO: 9 | sub-nanomolar range | 12 | – | – | – | –
Elafin: mature product of Trappin-2, C-terminal 57 amino acids (61-117 of SEQ ID NO: 9); AnaSpec Cat. No. AS-61641 (AQEPVKGPVSTKPGSCPIILIRCAMLNPPNRCLKDTDCPGIKKCCEGSCGMACFVPQ; listed as Homo sapiens) | sub-nanomolar range | – | 20 | 6.2 | 5455.7 | showed a functional response
B1 | – | – | – | 21.9 | 4417.7 | failing to provide a meaningful change
